Assay in all cases: cell-based or functional assay
The target of assay [1] is S protein of Jordan isolate virus (MERS-HCoV/Jordan/01) (MERS-CoV, Jordan isolate …).
Assay [2] has as its target S protein of Saudi isolate virus (MERS/HCoV/KSA/EMC/2012) (MERS-CoV, Saudi isolate …).
Assay [3] has as its target S protein of Korean isolate virus (MERS-CoV/Korea/KNIH/002_05_2015) (MERS-CoV, Korean isolate …).

B1: Antibody 3 (fully human antibody) (antibody, V domains shown)
VH: QVQLQESGPGLVKPSETLSLTCTVSGGSINSRSYYWGWIRQPPGKGLEWIGSIYYSGSTYYNPSLKSRVTISVDTSKNQFSLKLRSVTAADTAVYYCARADREHVWGSYDGPGSPFDYWGQGTLVTVSS
VL: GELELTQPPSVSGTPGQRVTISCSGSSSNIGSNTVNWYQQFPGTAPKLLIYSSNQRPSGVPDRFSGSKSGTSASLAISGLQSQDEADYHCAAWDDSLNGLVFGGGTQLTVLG
In the case of B1, in assay [1], the “Neutralizing activity against Jordan virus (MERS-HCoV/Jordan/01) IC50” value was 0.11 µg/mL. Also, the “Neutralizing activity against Saudi virus (MERS-CoV_KSA/EMC/2012) IC50” value in assay [2] was 0.13 µg/mL. Further, the “IC50, PRNT, Korean isolate virus, Second experiment” value (“IC50, PRNT … Second experiment” for short) in assay [3] is 0.0032 µg/mL.

B2: Antibody 4 (fully human antibody) (antibody, V domains shown)
VH: QVQLQESGPGLVKPSETLSLTCTVSGGSINSRSYYWGWIRQPPGKGLEWIGSIYYSGSTYYNPSLKSRVTISVDTSKNQFSLKLRSVTAADTAVYYCARADREYVWGSYDGPGSPFDYWGQGTLVTVSS
VL: GELVLTQPPSVSEAPRQRVTISCSGSSSNIGNNAVNWYLQVPGTAPKLLIYGDHQRPSGVPDRFSGSKSGTSASLSISGLQSEDEADYYCAAWDDSLNGVVFGGGTKLTVLG
Regarding B2, in assay [1], the “Neutralizing activity against Jordan virus (MERS-HCoV/Jordan/01) IC50” value was determined as 0.05 µg/mL. Besides, in assay [2], the “Neutralizing activity against Saudi virus (MERS-CoV_KSA/EMC/2012) IC50” value was 0.06 µg/mL. Besides, in assay [3], the “IC50, PRNT … Second experiment” value amounted to 0.00165 µg/mL.

B3: Antibody 1 (fully human antibody) (antibody, V domains shown)
VH: QVQLVQSGAEVKKPGSSVKVSCKASGGTFSSYVISWVRQAPGQGLEWVGRIIPIFGTVKYAQKFQGRVTITADKSTSTAYMELSSLRSEDTAVYYCARDLPGDSRDGYNYDAFDIWGQGTLVTVSL
VL: GELELTQPPSVSAAPGQKVTISCSGSSSNIGNNYVSWYQQLPGTAPKLLIYDNNKRPSGIPDRFSGSKSGTSATLGITGLQTGDEADYYCGTWDSSLNAGVFGGGTELTVLG
On to B3, for which the “Neutralizing activity against Jordan virus (MERS-HCoV/Jordan/01) IC50” value in assay [1] was 0.11 µg/mL. Also, the “Neutralizing activity against Saudi virus (MERS-CoV_KSA/EMC/2012) IC50” value in assay [2] is 0.44 µg/mL. Also, in assay [3], the “IC50, PRNT, Korean isolate virus, First experiment” value was 0.0004 µg/mL.

B4: Antibody 2 (fully human antibody) (antibody, V domains shown)
VH: EVQLVQSGAEVKKPGSSVKVSCKASGGTFSSYAISWVRQAPGQGLEWMGRIIPIFGIAKYAQKFQGRVTITADKSTSTAYMELSSLRSEDTAVYYCARDLPGDSRDGYNYDAFDIWGQGTMVTVSS
VL: GELVLTQPPSVSAAPGQKVTISCSGSSSNIGNNFVSWYQQLPGTAPKLLIYDNDKRPSGIPDRFSGSKSGTSATLGITGLQTGDEADYYCATWDRSLSVELFGGGTKVTVLG
Turning to B4, the “Neutralizing activity against Jordan virus (MERS-HCoV/Jordan/01) IC50” value in assay [1] was 0.06 µg/mL. Also, the “Neutralizing activity against Saudi virus (MERS-CoV_KSA/EMC/2012) IC50” value in assay [2] is 0.09 µg/mL. In addition, the “IC50, PRNT, Korean isolate virus, First experiment” value in assay [3] was 0.0009 µg/mL.

B5: Antibody 5 (fully human antibody) (antibody, V domains shown)
VH: EVQLVQSGAEVKKPGSSVKVSCKASGGTFSSYAISWVRQAPGQGLEWMGRIIPIFGIAKYAQKFQGRVTITADRSTSTAYMELSSLRSEDTAVYYCVTRSGDYSGSSGLAFDIWGQGTMVTVSS
VL: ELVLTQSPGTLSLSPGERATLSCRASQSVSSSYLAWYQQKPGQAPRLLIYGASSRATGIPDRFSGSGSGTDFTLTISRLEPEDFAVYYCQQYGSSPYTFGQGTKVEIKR
As to B5, in assay [1], the “Neutralizing activity against Jordan virus (MERS-HCoV/Jordan/01) IC50” value amounted to 0.09 µg/mL. Further, the “Neutralizing activity against Saudi virus (MERS-CoV_KSA/EMC/2012) IC50” value in assay [2] turned out to be 0.06 µg/mL. In assay [3], the “IC50, PRNT … Second experiment” value stood at 0.00025 µg/mL.

The values above are taken from patent US20220177552A1 (CELLTRION, published 2022).
